23 molecules from patent publication US20220195015A1 (published 2022) can be followed below.

First the molecules themselves.
B1: C073 (antibody, V domains shown)
VH: QLQLQESGPGLVKPSETLSLTCTVSGASIPSSTSYWGWIRQPPGKGLEWIGSIYYTGSTYYNPSLKSRVTISVDTSKNHFSLILSSVTAADTAVYYCARRSITLAGRDCLDFWGQGTLVTVSS
VL: DIQLTQSPSSLSASVGDRLTITCRASQSITTSLNWYQQKPGKAPKLLIYAASSLQSGVPSRFSGSGSGTDFTLAISSLQPEDFATYYCQQSYIPLLTFGGGTKVDIK
B2: C213 (antibody, V domains shown)
VH: EVQLVESGGGLVKPGGSLRLSCAASGFTFSSYSMNWVRQAPGKGLEWVSSISSSSSYIYYADSVKGRFTISRDNAKNSLYLQMNSLRAEDTAVYYCARVQVGARGWVDYWGQGTLVTVSS
VL: NFMLTQPHSVSESPGKTVTISCTRSSGSIASNYVQWYQQRPGSAPTTVIYEDNERPSGVPDRFSGSIDSSSNSASLTISGLKTEDEADYYCQSYDRINWVFGGGTKLTVL
B3: C217 (antibody, V domains shown)
VH: EVQLVESGGGLVKPGGSLRLSCAASGFTFSSYSMNWVRQAPGKGLEWVSFISSRSSYIYYADSVKGRFTISRDNAKNSLYLQMNSLRAEDTAVYYCARVQVGARGWVDYWGQGTLVTVSS
VL: NFMLTQPHSVSESPGKTVTISCTRSSGSIASNYVQWYQQRPGSAPTTVIYEDNQRPSGVPDRFSGSIDSSSNSASLTISGLKTEDEADYYCQSYDSINWVFGGGTKLTVL
B4: C564 (antibody, V domains shown)
VH: EVQLLESGGGLVQPGTSLRLSCAASGFTFSSYAMSWVRQAPGKGLEWVSAISSSGGSTYYADSVKGRFTISRDNSKNTLYLHMNSLRAEDTAVYYCATERIAVAGTRMYNWFDPWGQGTLVTVSS
VL: DIQMTQSPSSLSASVGDRVTLTCRASQSISSYLNWYQQKPGKAPNLLIYAASSLQSGVPSRFSGSGSGTDFTLTISSLQPEDFATYYCQQSYSAPPWTFGQGTKVEIK
B5: C563 (antibody, V domains shown)
VH: EVQLVESGGGLVKPGGSLRLSCAASGFPFTNAWMSWVRQAPGKGLEWVGHIKDYTDGGTTDYAAPVKGKFTISRDDSKNTLYLHMNSLKTEDTAVYYCSTVGSYYYDSRGPTSDAFDIWGQGTLVTVSS
VL: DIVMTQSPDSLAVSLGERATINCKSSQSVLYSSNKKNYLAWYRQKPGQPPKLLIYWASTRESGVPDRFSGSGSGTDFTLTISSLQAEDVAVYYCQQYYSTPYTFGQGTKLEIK
B6: C540 (antibody, V domains shown)
VH: EVQLVESGGGLVQPGGSLRLSCAASGFTFRNYDMHWVRQVAGKGLEWVSAIGTSGDTYYPDSVKGRFTISRENAKNSVYLQMNNLRAGDTAVYFCVRDREISGWTGWYFDLWGRGTLVTVSS
VL: DIQMTQSPSSLSASVGDRVTITCRASQTIHNYLNWYQQIPGKAPRLLIYATNTLQSGVPSRFSGSGSGTDFTLTITGLQPEDFATYYCQQSYSTPPITFGQGTRLEIK
B7: C511 (antibody, V domains shown)
VH: EVQLVESGGGLVQPGGSLRLSCAATEITVSSNYMTWVRQAPGKGLEWVSVIYPGGSTFYADSVKGRFSISRDNSKNTLYLQMNSLRAEDTAVYYCARDLVVYGLDCWGQGTLVTVSS
VL: DIQLTQSPSFLSASVGDRVTITCRASQGISSYLAWYQQKPGKAPKLLIYAASTLQSGVPSRFSGSGSGTEFTLTISSLQPEDFATYYCQQLNTYPPPFGGGTKVEIK
B8: C503 (antibody, V domains shown)
VH: QVQLQESGPGLVQPSGTLSLSCTVTGGSISSNNWWSWVRQSPVKGLEWIGEIYHNGNINYNPSLKSRVTMSIDKSKNHFSLKLSSVTAADTAVYYCARGDVLDWFDPWGQGTLVTVS
VL: QSALTQPASVSGSPGQSITFSCTGTSSDVGAYNYISWYQQHPGKAPKLMIYDVNNRPSGVSRRFSGSKSGNTASLTISGLQSEDEADYFCSSYAGNSTVRFGGGTKLTVL
B9: C509 (antibody, V domains shown)
VH: QVQLQESGPGLVKPSGTLSLTCAVSGGSISSSNWWSWVRQPPGKGLEWIGEIYNSGSTNYNPSLKSRVTILVDKSKNQFSLKLSSVTAADTAVYYCAGSYSNYIGGVWFDPWGQGTLVTVSS
VL: EIVLTQSPATLSLSPGERATLSCRASQSVSTYLAWYQQKPGQAPRLLIYDASNRATGIPARFSGSGSGTDFTLTISSLEPEDFAVYYCQQRNNWLTFGGGTKVEIK
B10: C597 (antibody, V domains shown)
VH: QVQLVQSGPEVKKPGTSVKVSCKASGFTFTNSAVQWVRQSRRQRLEWIGWIVVGSGNTNYAQKFQERVTITRDMSTSTAYMELSSLRSEDTAVYYCAAVDCNSTSCYDAFDIWGQGTMVTVSS
VL: EIVLTQSPGTLSLSPGERATLSCRASQSFRSSYLAWYQQKPGQAPRLLIYGASSRATGIPDRFSGSGSGSDFTLTISRLEPEDFAVYYCQQYDISPWTFGQGTKVEIK
B11: C598 (antibody, V domains shown)
VH: QVQLVQSGPEVKKPGTSVKVSCKASGFTFSSSAVQWVRQARGQRLEWIGWIVVGSGNTNYAQKFQERVTITRDMSTSTAYMELSSLRSEDTAVFYCAAPYCNVTTCFDGFNIWGRGTMVTVSS
VL: EIVLTQSPGTLSLSPGERATLSCRASQSVRSSYFAWYQQKPGQAPRLLIYAASSRATGIPDRFSGSGSGTDFTLTISRLEPEDFALYYCQQYGSSPWTFGQGTKVEIK
B12: C516 (antibody, V domains shown)
VH: QVQLVQSGAEVKKPGSSVKVSCKASGGTFSSYAISWVRQAPGQGLEWMGRIIPMLVIATYARKFQGRVTITADKSTSTAYMELSSLRSEDTAVYYCARGVVAATPGNFDIWGQGTMVTVSS
VL: EIVMTQSPATLSVSPGERATLSCRASQSVSSNLAWYQQKPGQAPRLLIYGASTRATGIPARFSGSGSGTEFTLTISSLQSEDFAVYYCQQYNNGLTFGGGTKVEIK
B13: C502 (antibody, V domains shown)
VH: QVQLVQSGAEVKKPGSSVKVSCKASGDTFSSHAINWVRQAPGQGLEWMGRSIPMLGVTTSAQKFKGRVTITADHSTSTVFMDLSSLRSDDTAIYYCARGVVGATPGSFDLWGQGTMVTVSS
VL: EIVMTQSPATLSVSPGKRATLSCRASQSVRSNLAWYQQRPGQAPRLLIYDAATRATGIPTRFSGSGSGTEFTLTISSLQSEDFAVYYCQQYDNGLTFGGGTKVEIK
B14: C506 (antibody, V domains shown)
VH: EVQLVESGGGLVQPGGSLRLSCAASGFTFSSYDMHWVRQGTGKGLEWVSVIGTAGDAYYPGSVKGRFTISRENAKNSLYLQMNSLRAGDTAVYYCARMVYDSSGFKGYFDLWGRGTLVTVSS
VL: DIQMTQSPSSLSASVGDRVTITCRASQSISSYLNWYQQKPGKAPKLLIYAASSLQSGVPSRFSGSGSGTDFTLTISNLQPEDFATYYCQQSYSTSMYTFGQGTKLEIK
B15: C517 (antibody, V domains shown)
VH: EVQLVESGGGLVQPGGSLRLSCAASEFIVSRNYMSWVRQAPGKGLEWVSLIYSGGSTYYADSVKGRFTISRDNSKNTLYLQMNSLRAEDTAMYYCARDIAGRLDYWGQGTLVTVSS
VL: DIQMTQSPSSLSASVGDRVTITCQASQDISKYLNWYQQKPGKAPKLLIYDASNLETGVPSRFSGSGSGTDFTFTISSLQPEDFATYYCQHYDSLSRLTFGGGTKVEIK
B16: C514 (antibody, V domains shown)
VH: EVQLVESGGGLVQPGGSLRLSCAASEFIVTRNYMSWVRQAPGKGLEWVSLIYPGGSTFYADSVKGRFTISRDNSKNTLFLHMNSLRAEDTAVYYCARDLAGRLDYWGQGTLVTVSS
VL: DIQMTQSPSSLSASVGDRVTITCQASQDINNFLNWYQQKPGKAPKLLIYDASNLETGVPSRFSGSGSGTDFTFTISSLQPEDIAIYYCQQYDSLSRLTFGGGTKVEIK
B17: C547 (antibody, V domains shown)
VH: QVQLVESGGGVVQPGRSLRLSCAASGFTFSSYGMHWVRQAPGKGLEWVAVISYDGSNKYYADSVKGRFTISRDNSKNTLYLQMNSLRAEDTAVYYCAKDTPGGDDILTGWGLYGMDVWGQGTTVTVSS
VL: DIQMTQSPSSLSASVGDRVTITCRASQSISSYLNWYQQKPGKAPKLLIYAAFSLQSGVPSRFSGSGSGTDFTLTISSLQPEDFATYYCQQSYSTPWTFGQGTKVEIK
B18: C543 (antibody, V domains shown)
VH: QVQLVESGGGVVQPGRSLRLSCTASGFTFSTAGMHWVRQAPGKGLEWVAVISYDGSNKDYADSVKGRFTISRDNSKSTLYLQMNSLRPEDTAVYYCAKDTPGGDDIMTGWGLYGMDVWGQGTTVTVSS
VL: DIQMTQSPSSLSASVGDRVTITCRASQSISSYLNWYHQKPGKAPKLLIYAAISLQSGVPSRFSGSGFGTDFTLTISSLQPEDFAIYYCQQSYSTPWTFGQGTKVEIK
B19: C510 (antibody, V domains shown)
VH: QVQLQQWGAGLLKPSETLSRTCAVYGGSFSGYYWSWFRQSPGKGLEWIGEINHSGSTNYNPSLKNRVTISVDTSKNQFSLMLSSVTAADTAVYYCARGGFGVVINYYYSGMDVWGRGTTVTVSS
VL: not shown
B20: C507 (antibody, V domains shown)
VH: EVQLVESGGGVVQPGRSLRLSCAASGFTFSSYAIHWVRQAPGKGLEWVAVISFDGSNKYYRDSVKGRFTISRDNGKNTLYLQMNSLRAEDTAVYYCAKAALGYCTNGVCYCDNWGQGTLVTVSS
VL: NFMLTQPHSVSESPGKTVTISCTGSSGSIASNYVQWYQQRPGSAPTTVIYEDNQRPSGVPDRFSGSIDSSSNSASLSISGLKTEDEADYYCQSYDINSLWVFGGGTRLTVL
B21: C504 (antibody, V domains shown)
VH: QVQLQESGPGLVKPSETLSLTCTVSGGSISSSYWNWIRQSPGKGLEWIGYIYYDGYTTFNPSLKSRVTISVDTSKNQFSLKLSSVTAADTAFYYCAAGLKGRSSSWYEYWGQGTLVTVSS
VL: DIQMTQSPSSLSASVGDRVTITCRASQSISSYLNWYQQKPGKAPKLLIYATSSLQSGVPSRFSGSGSGTDFTLTITSLQPEDFATYYCQQTYSSPHTFGQGTKLEIK
B22: C505 (antibody, V domains shown)
VH: EVQLLESGGGLVQPGGSLRLSCADSGFSFSTYGMSWVRQAPGKGLEWVSTISGSGDNTYHADSVKGRFTISRDNSKNTLYLQMNSLRAEDTAVYYCAKNIAEMSTFDDYFYYYGMDVWGQGTTVTVSS
VL: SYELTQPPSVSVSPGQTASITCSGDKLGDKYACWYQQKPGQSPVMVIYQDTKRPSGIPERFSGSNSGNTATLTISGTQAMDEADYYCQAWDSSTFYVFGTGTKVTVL
B23: C539 (antibody, V domains shown)
VH: EVQLVESGGGLVQPGRSLRLSCAASGFTFDDYALHWVRQAPGKGLEWVSGISWNGDSIGYADSVKGRFTISRDNAKNSLSLQMNSLTAEDTALYYCAKGVEYSSSSNCDYWGQGTLVTVSS
VL: DIQMTQSPSSVSASVGDRVTITCRASQDISSWLAWYQQKPGKAPKLLISLASGLQSGVPSRFSGSGSETDFTLTISSLQPEDFATYYCQQTNSFPLTFGGGTKVEI

The target in one assay is SARS-CoV-2 RBD (wild type) (SARS-CoV-2, UniProt P0DTC2 319-539). The assay is described as follows: ELISA on coated RBD. Background: In an ELISA, binding on a coated surface is turned into a signal by an enzyme label.
The molecule B1 had an EC50 of 20.6 ng/mL.
On the same count and under the same terms, the same measure for B2: 2.02 ng/mL; for B3: 2.28 ng/mL.
Still for that read-out and setting: the same measure for B4: 14.6 ng/mL; for B5: 1.19 ng/mL.

The target of another assay is SARS-CoV-2 spike receptor binding domain (RBD), S protein residues 319-539 (SARS-CoV-2, UniProt P0DTC2 319-539). In words: ELISA on coated RBD.
B6: the EC50 turned out to be 2.9 ng/mL.
The molecule B7 showed an EC50 of 1.33 ng/mL.
The same measure, in the same setting: the same measure for B8: 6.48 ng/mL; for B9: 4.44 ng/mL.
Same read-out and setting: the same measure for B10: 3.77 ng/mL; for B11: 3.78 ng/mL; for B12: 5.72 ng/mL.
In turn, B13 had an EC50 of 6.48 ng/mL.
Same read-out and setting: the result for B14 reads 16 ng/mL; that for B15, 0.87 ng/mL.
B16 had an EC50 of 0.82 ng/mL.
Consider B17, for which a half-maximal effect (EC50) was put at 1.78 ng/mL.
For B18, the EC50 is 1.28 ng/mL.
Take B19: the EC50 turned out to be 5.94 ng/mL. Compared with the last molecule, the EC50 is about 4.6-fold higher.
As for B20, the EC50 is 5.6 ng/mL.
Still for that read-out and setting: the result for B21 reads 6.55 ng/mL.
Still for that read-out and setting: the result for B22 reads 9.08 ng/mL; that for B23, 1.3 ng/mL.

One may read the EC50 as the concentration giving half of the maximal effect.
